No end group written: not given here.
Columns and labels:
[1] = keratin binding domain absorption test (FITC-conjugated peptides, fluorescence microscopy), healthy hair; settings: FITC conjugate, 37° C. for 1 hr, hair washed 10 times
Experimental: (§1) The peptide-FITC conjugate is not seen on healthy hair because the hydrophobic surface of healthy hair cuticles prevents binding of the peptide. However, peptide-FITC conjugates are shown to be absorbed in damaged hair because the peptide bonds to exposed keratin proteins on damaged hair shafts. […] This is due to binding of the C-terminal cysteine present on Peptide 2 to the exposed keratin protein on the damaged hair.
(§2) Samples of healthy and damaged hair were incubated with the FITC-conjugated peptides at 37° C. for 1 hr, followed by washing the hair 10 times (FIG. 5). The results are provided in the images obtained by fluorescent microscopy shown in the right part of FIG. 5.

[2] = system: exposed keratin proteins on damaged hair; test: keratin binding domain absorption test (FITC-conjugated peptides, fluorescence microscopy), damaged hair; settings: FITC conjugate, 37° C. for 1 hr, hair washed 10 times
Text: as §1
To provide damaged hair for treatment using the exemplary engineered keratin-binding construct, hair was incubated with 10% H2O2(v/v) in 0.1M Na2CO3/NaHCO3 (pH 9.0) buffer at 50° C. for 1 hr, and then the hairs were washed in deionized (DI) water.
as §2

[3] = system: NIH3T3 fibroblast cell; test: MTT assay, NIH3T3 fibroblast cell viability; assay type: cell-based; settings: in the presence of the protein
[4] = system: IL-6 in fibroblast cells; test: IL-6 ELISA (immune response); assay type: cell-based; settings: LPS positive control
Experimental: (§3) Keratin-binding protein (B22) was tested for immune response by performing an IL-6 ELISA and IFN-γ ELISA. The effects of KBP and KBP-lipid conjugate on the immune response was assessed by measuring levels of IL-6 and IFN-γ in fibroblast cells. No protein was added to the cells as a negative control. Lipopolysaccharides (LPS) were used as a positive control.

[5] = system: damaged hair; test: affinity of keratin binding protein tagged with a fluorescent dye for damaged and undamaged hair (fluorescence microscopy)
Experimental: Keratin binding protein tagged with a fluorescent dye was incubated with damaged and undamaged (virgin) hair, and observed by fluorescence microscopy. The results are depicted in FIG. 8, with microscopy images shown on the left and intensity of corrected fluorescence shown on the right. Corrected fluorescence=Integrated Density−(selected area X Mean fluorescence of background).
The damaged hair incubated with keratin binding protein tagged with a fluorescent dye for varying amounts of time was then subjected to washing with shampoo.

[6] = solubility test in oil-based solvents; assay type: physicochemical; settings: 2.5 mg protein/10 mL solvent
Experimental: Solubility tests were performed by adding keratin-binding protein to 7 different solvents at concentrations of 2.5 mg protein/10 mL solvent. […] KBP was soluble in polysorbate 40 (Tween® 40) and Solubilisant CLR, with only a few visible particles present in solution.

[7] = system: IFN-γ in fibroblast cells; test: IFN-γ ELISA (immune response); assay type: cell-based; settings: LPS positive control
Experimental: as §3

peptide1-FITC: Peptide1 (AKTKKVELFPK) conjugated to fluorescein isothiocyanate (FITC) (also: FITC conjugate, site not given here)
binding to healthy hair [1]: Neither peptide1-FITC nor peptide1-FITC is shown as binding

Peptide 2: same keratin binding domain as peptide 1 plus a C-terminal cysteine, AKTKKVELFPKC; SEQ ID NO: 5
affinity to damaged hair compared to Peptide 1 [2]: higher affinity | binding affinity to the damaged hair [2]: strong binding affinity

B1: KBP: engineered keratin-binding protein without tyrosine residues; keratin-binding domain SEQ ID NO: 1 repeated three times, expressed in E. coli (protein)
chain: MAKTHHHHHHQGQVQHLQAAFSQYKKVELFPKGGQGQVQHLQAAFSQYKKVELFPKGGQGQVQHLQAAFSQYKKVELFPKGGYYYYC
NIH3T3 fibroblast cell viability [3]: increased | production of IL-6 [4]: No production | binding to damaged hair versus healthy hair [5]: binds more readily to damaged hair | solubility in butylene glycol [6]: not soluble | solubility in glycerin [6]: not soluble | solubility in hexylene glycol [6]: not soluble | solubility in polysorbate 20 (Tween® 20) [6]: not soluble | solubility in Solubilisant CLR ([6]; only a few visible particles): soluble | solubility in polysorbate 40 (Tween® 40) ([6]; only a few visible particles): soluble | production of IFN-γ [7]: No production

B2: KBPY: keratin-binding protein with tyrosine residues, SEQ ID NO: 2: MAKT-6His-three keratin-binding domain repeats-YYYYC (protein)
chain: B1 chain
NIH3T3 fibroblast cell viability [3]: increased

From patent US20190314260A1, “ENGINEERED TREATMENTS FOR HAIR REPAIR AND LONG-LASTING COLOR RETENTION” (Massachusetts Institute of Technology, priority 2018, published 2019)
